B1: 1.2b (VHH)
VHH: EVQLLESGGGLVKPGGSLRLSCAASGFTFSDYTMTWMRQAPGKGLEWVSYISTGGSIKYYTDSVKGRFTISRDNAKNSLYLQMNSLRADDTAVYYCAREAPLRLGESPHDAFDIWGQGTMVTVSS
B2: 1.30b (VHH)
VHH: QVTLKESGGGLVKPGGSLRLSCAASGFTFSDYTMTWMRQAPGKGLEWVSYISTGGSIKYYTDSVKGRFTISRDNARNSLYLQMNSLRAEDTAVYYCAREAPLRLGESPHDAFDIWGQGTMVTVSS
B3: 1.16b (VHH)
VHH: EVQLVESGGGLVKPGGSLRLSCAASGFTFSDYTMSWMRQAPGKGLEWVSYISTGGSIKYYTDSVKGRFTISRDNAKNSLYLQMNSLRADDTAVYYCAREAPLRLGESPHDAFDIWGQGTMVTVSS
B4: 1.39b (VHH)
VHH: QVQLQESGGGLVKPGGSLRLSCAASGFTFSDYTMTWMRQAPGKGLEWVSYISTGGSIKYYTDSVKGRFTISRDNAKNSLYLQMNSLRADDTAVYYCAREAPLRLGESPHDAFDIWGQGTMVTVSS
B5: 1.46b (VHH)
VHH: QVQLVESGGGLVKPGGSLRLSCAASGFTFSDSSMSWMRQAPGKGLEWVSYISSGGGVIFYADSVKGRFTISRDNAKNSLYLQMNSLRADDTAVYYCAREAPLRLGESPHDAFDIWGQGTMVTVSS
B6: 1.29b (VHH)
VHH: QVTLKESGGGLVKPGGSLRLSCAASGFTFSDYTMSWMRQAPGKGLEWVSYISTGGTIKYYTDSVKGRFTISRDNAKNSLYLQMNSLRADDTAVYYCAREAPLRLGESPHDAFDIWGQGTMVTVSS
B7: 1.44b (VHH)
VHH: QVQLVESGGGLVKPGGSLRLSCAASGFTFSDNSMTWMRQAPGKGLEWVSYISSGGAVKFYADSVKGRFTISRDNAKNSLYLQMNSLRADDTAVYYCAREAPLRLGESPHDAFDIWGQGTMVTVSS
B8: 1.3b (VHH)
VHH: QVQLVESGGGLVKPGGSLRLSCAASGFTFSDYTMTWMRQAPGKGLEWVSYISTGGSIKYYTDSVKGRFTISRDNAKNSLYLQMNSLRADDTAVYYCAREAPLRLGESPHDAFDIWGQGTMVTVSS
B9: 1.34b (VHH)
VHH: EVQLVESGGGLVKPGGSLRLSCAASGFTFSDYTMTWMRQAPGKGLEWVSYISTGGSVKYYTDSVKGRFTISRDNAKNSLYLQMNSLRADDTAVYYCAREAPLRLGESPHDAFDIWGQGTMVTVSS
B10: 1.21b (VHH)
VHH: EVQLVESGGGLVKPGGSLRLSCAASGFTFSDYTMTWMRQAPGKGLEWVSYISTGGSIKYYTDSVKGRFTISRDNAKNSLYLQMNSLRADDTAVYYCAREAPLRLGESPHDAFDTWGQGTMVTVSS
B11: 1.27b (VHH)
VHH: QVTLKESGGGLVKPGGSLRLSCAASGFTFSDYTMTWMRQAPGKGLEWVSYISTGGSIKYYTDSVKGRFTISRDNAKNSLYLQMNSLRADDTAVYYCAREAPLRLGESPHDAFDIWGQGTMVTVSS
B12: 1.17b (VHH)
VHH: EVQLVESGGGLVKPGGSLRLSCAASGFTFSDYTMTWMRQAPGKGLEWVSYISTGGSIKYYTDSVKGRFTISRDNAKNSLYLQMNSLRVDDTAVYYCAREAPLRLGESPHDAFDIWGQGTMVTVSS
B13: 1.23b (VHH)
VHH: QITLKESGGGLVKPGGSLRLSCAASGFTFSDYTMSWMRQAPGKGLEWVSYISTGGTIKYYTDSVKGRFTISRDNAKNSLYLQMNSLRADDTAVYYCAREAPLRLGESPHDAFDIWGQGTMVTVSS
B14: 1.10b (VHH)
VHH: QVQLVESGGGLVKPGGSLRLSCAASGFTFSDYTMSWMRQAPGKGLEWISYISLGGNTKYYTDSVKGRFTISRDNAKNSLYLQMNSLRADDTAVYYCAREAPLRLGESPHDAFDIWGQGTMVTVSS
B15: 1.43b (VHH)
VHH: QVQLVESGGGLVKPGGSLRLSCAASGFTFSDSSMTWMRQAPGKGLEWVSYISSGGGVIFYADSVKGRFTISRDNAKNSLYLQMNSLRADDTAVYYCAREAPLRLGESPHDAFDIWGQGTMVTVSS
B16: 1.11b (VHH)
VHH: EVQLLESGGGLVKPGGSLRLSCAASGFTFSDYDMTWIRQAPGKGQEWVSYISRGGSTKYYADSVKGRFTISRDNAKNSLYLQMNSLRAEDTAVYYCAREAPLRLGETPHDAFDIWGQGTMVTVSS
B17: 1.19b (VHH)
VHH: QVQLVESGGGLVKPGGSLRLSCAASGFTFSDYTMTWMRQAPGKGLEWVSYISTGGSIKYYTDSVKGRFTISRDNAKNSLYLQMNSLRAEDTAVYYCAREAPLRLGETPHDAFDIWGQGTMVTVSS
B18: 1.6b (VHH)
VHH: EVQLLESGGGLVKPGGSLRLSCAASGFTFSDYTMTWMRQAPGKGLEWVSYISTGGTIKYYTDSVKGRFTISRDNAKNSLYLQMSSLRADDTAVYYCAREAPLRLGESPHDAFDIWGQGTMVTVSS
B19: 1.20b (VHH)
VHH: EVQLLESGGGLVKPGGSLRLSCAASGFTFSDYTMTWMRQAPGKGLEWVSYISSGGSIKFYADSVKGRFTISRDNAKNSLYLQMNSLRAEDTAVYYCAREAPLRLGESPHDAFDIWGQGTMVTVSS
B20: 1.36b (VHH)
VHH: EVQLVESGGGLVKPGGSLRLSCAASGFTFSDYTMTWMRQAPGKGLEWVSYISTGGTIKYYTDSVKGRFTISRDNAKNSLFLQMNSLRADDTAVYYCAREAPLRLGESPHDAFDIWGQGTMVTVSS
B21: 1.45b (VHH)
VHH: QVQLVESGGGLVKPGGSLRLSCAASGFTFSDYSMSWMRQAPGKGLEWVSYISSGGGVIFYADSVKGRFTISRDNAKNSLYLQMNSLRADDTAVYYCAREAPLRLGESPHDAFDIWGQGTMVTVSS
B22: 1.8b (VHH)
VHH: EVQLVESGGGLVKPGGSLRLSCAASGFTFSDYTMTWMRQAPGKGLEWVSYISTGGSIKYYTDSVKGRFTISRDNAKNSLYLQMNSLRAGDTAVYYCAREAPLRLGESPHDAFDIWGQGTMVTVSS
B23: 1.37b (VHH)
VHH: QVQLVESGGGLVKPGGSLRLSCAASGFTFSDYTMTWMRQAPGKGLEWVSYISTGGSIKYYTDSVKGRFTISRDNAKNSLFLQMNSLRADDTAVYYCAREAPLRLGESPHDAFDIWGQGTMVTVSS
B24: 1.32b (VHH)
VHH: QVTLKESGGGLVKPGGSLRLSCAASGFTFSDDYMMWIRQAPGKGLEWVSYISSGGSIIYYADSVKGRFTISRDNAKNSLYLQMNSLRAEDTAVYYCAREAPLRLGESPHDAFDIRGQGTMVTVSS
B25: 1.42b (VHH)
VHH: QVQLVESGGGLVKPGGSLRLSCAASGFTFSDNSMTWMRQAPGKGLEWVSYISSGGGVKFYADSVKGRFTISRDNAKNSLYLQMNSLRADDTAVYYCAREAPLRLGESPHDAFDIWGQGTMVTVSS
B26: 1.5b (VHH)
VHH: EVQLVESGGGLVKPGGSLRLSCAASGFTFSDYTMTWMRQAPGKGLEWVSYISTGGNTKYYTDSVKGRFTISRDNAKNSLYLQMNSLRADDTAVYYCAREAPLRLGESPHDAFDIWGQGTMVTVSS
B27: 1.31b (VHH)
VHH: QVTLKESGGGLVKPGGSLRLSCAASGFTFSDYTMTWMRQAPGKGLEWVSYISTGGSTKYYTDSVKGRFTISRDNAKNSLYLQMNSLRADDTAVYYCAREAPLRLGESPHDAFDIWGQGTMVTVSS
B28: 1.9b (VHH)
VHH: QVQLVESGGGLVKPGGSLRLSCAASGFTFGDYTMTWMRQAPGKGLEWVSYISTGGTIKYYTDSVKGRFTISRDNAKNSLYLQMDSLRADDTAVYYCAREAPLRLGESPHDAFDIWGQGTMVTVSS
B29: 1.22b (VHH)
VHH: EVQLVESGGGLVKPGGSLRLSCAASGFTFSDYTMTWMRQAPGKGLEWVSYISTGGSIKYYTDSVKGRFTISRDNAKNSLYLQMNSLRADDTAVYYCAREAPLRLGESPHDAFDIWGQGTMVTVSS
B30: 1.4b (VHH)
VHH: QVQLVESGGGLVKPGGSLRLSCAASGFTFSDYYMIWMRQAPGKGLEWVSYISGGGTTKYYTDSVKGRFTISRDNAKNSLYLQMNSLRADDTAVYYCAREAPLRLGETPHDAFDIWGQGTMVTVSS
B31: 1.35b (VHH)
VHH: EVQLLESGGGLVKPGGSLRLSCAASGFTFSDYTMTWMRQAPGKGLEWVSYISTGGSIKYYTDSVKGRFTISRDNAKNSLYLQMNSLRVDDTAVYYCAREAPLRLGESPHDAFDIWGQGTMVTVSS

Each binder was assayed against T1, human PD-1 expressed on cells (CHO TREX human PD1 cell line, full-length human PD-1 sequence) (human, UniProt Q15116 21-288) (assay: worded summary of the screens).
T1 construct: Also used for human PD-1 on Jurkat reporter cells, on PathHunter cells and on PHA-stimulated human CD4+ T cells; also called CHO human PD1 cells; CHO human PD-1 cells
T1 sequence (Q15116 21-288): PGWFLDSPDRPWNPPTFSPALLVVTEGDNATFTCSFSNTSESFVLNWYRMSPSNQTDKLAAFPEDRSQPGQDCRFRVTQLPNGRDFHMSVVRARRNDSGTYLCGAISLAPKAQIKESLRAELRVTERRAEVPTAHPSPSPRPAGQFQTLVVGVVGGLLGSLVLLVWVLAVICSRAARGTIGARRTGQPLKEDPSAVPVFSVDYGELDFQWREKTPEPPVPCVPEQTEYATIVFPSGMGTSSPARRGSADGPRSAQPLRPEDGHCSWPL

Binding result, binds:
B1, B2, B3, B4, B5, B6, B7, B8, B9, B10, B11, B12, B13, B14, B15, B16, B17, B18, B19, B20, B21, B22, B23, B24, B25, B26, B27, B28, B29, B30, B31

— patent publication US20220306744A1 (CRESCENDO BIOLOGICS, published 2022)
